Key:
Assay in all cases: holdup assay
Set-up in all cases: key: below the threshold = too weak to quantify, mostly under pKd 3.1 to 4
NHERF3_1, Q5T2W1 = biological target: T1, NHERF3_1, Q5T2W1
T1 sequence (Q5T2W1 4-100, limits assumed, looked up): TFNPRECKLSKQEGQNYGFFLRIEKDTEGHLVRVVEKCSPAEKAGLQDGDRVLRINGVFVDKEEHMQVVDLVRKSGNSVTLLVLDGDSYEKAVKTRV

RHPN1, Q8TCX5 = biological target: T2, RHPN1, Q8TCX5
T2 sequence (Q8TCX5 508-602, limits assumed, looked up): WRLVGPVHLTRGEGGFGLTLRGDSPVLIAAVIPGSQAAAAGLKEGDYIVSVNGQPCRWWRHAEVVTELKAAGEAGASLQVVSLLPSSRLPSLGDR

DLG4_2, P78352 = biological target: DLG4_2, P78352
DLG4_2, P78352, sequence (P78352 155-259): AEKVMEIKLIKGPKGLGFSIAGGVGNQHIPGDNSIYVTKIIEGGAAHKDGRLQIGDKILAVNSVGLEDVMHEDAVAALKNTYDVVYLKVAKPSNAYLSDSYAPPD

SYNJ2BP, P57105 = biological target: T3, SYNJ2BP, P57105
T3 sequence (P57105 8-110, limits assumed, looked up): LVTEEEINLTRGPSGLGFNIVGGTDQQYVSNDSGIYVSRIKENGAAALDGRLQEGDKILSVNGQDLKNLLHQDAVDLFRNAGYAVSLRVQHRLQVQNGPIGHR

GRIP2_4, Q9C0E4 = biological target: GRIP2_4, Q9C0E4
GRIP2_4, Q9C0E4, sequence (Q9C0E4 446-548): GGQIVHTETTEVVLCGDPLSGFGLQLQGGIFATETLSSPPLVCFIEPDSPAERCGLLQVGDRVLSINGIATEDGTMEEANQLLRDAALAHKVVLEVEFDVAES

GRIP1_5, Q9Y3R0 = biological target: T4, GRIP1_5, Q9Y3R0
T4 sequence (Q9Y3R0 568-668, limits assumed, looked up): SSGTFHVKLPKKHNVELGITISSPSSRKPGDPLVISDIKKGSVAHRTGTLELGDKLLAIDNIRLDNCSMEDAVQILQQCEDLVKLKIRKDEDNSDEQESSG

LNX2_2, Q8N448 = biological target: T5, LNX2_2, Q8N448
T5 sequence (Q8N448 334-432, limits assumed, looked up): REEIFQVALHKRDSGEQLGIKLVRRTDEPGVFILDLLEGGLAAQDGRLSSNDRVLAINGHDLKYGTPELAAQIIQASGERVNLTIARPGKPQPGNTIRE

DLG4_1, P78352 = biological target: DLG4_1, P78352
DLG4_1, P78352, sequence (P78352 62-152): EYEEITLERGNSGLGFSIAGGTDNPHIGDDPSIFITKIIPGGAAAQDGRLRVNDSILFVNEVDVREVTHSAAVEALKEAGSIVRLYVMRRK

FRMPD3, Q5JV73 = biological target: FRMPD3, Q5JV73
FRMPD3, Q5JV73, sequence (Q5JV73 12-100): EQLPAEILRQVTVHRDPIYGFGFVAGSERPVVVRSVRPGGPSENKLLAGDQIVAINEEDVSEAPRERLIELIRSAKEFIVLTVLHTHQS

PDLIM1, O00151 = biological target: PDLIM1, O00151
PDLIM1, O00151, sequence (O00151 1-87): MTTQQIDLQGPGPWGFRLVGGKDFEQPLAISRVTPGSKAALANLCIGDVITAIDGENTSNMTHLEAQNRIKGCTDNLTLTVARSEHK

DLG2_3, Q15700 = biological target: DLG2_3, Q15700
Inadl_8, Q8NI35 = biological target: Inadl_8, Q8NI35
Inadl_8, Q8NI35, sequence (Q8NI35 1425-1530): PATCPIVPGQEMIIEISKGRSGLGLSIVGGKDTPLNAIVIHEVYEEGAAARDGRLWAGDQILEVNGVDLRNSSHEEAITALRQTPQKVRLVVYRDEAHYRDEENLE

HTRA1, Q92743 = biological target: HTRA1, Q92743
HTRA1, Q92743, sequence (Q92743 360-477): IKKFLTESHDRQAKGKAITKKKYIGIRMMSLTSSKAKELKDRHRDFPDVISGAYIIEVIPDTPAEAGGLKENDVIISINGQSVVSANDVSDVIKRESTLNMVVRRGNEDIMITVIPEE

IL16_3, Q14005 = biological target: IL16_3, Q14005
IL16_3, Q14005, sequence (Q14005 1107-1207): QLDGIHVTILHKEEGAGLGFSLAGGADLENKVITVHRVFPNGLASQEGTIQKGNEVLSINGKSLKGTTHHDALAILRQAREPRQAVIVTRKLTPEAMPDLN

GRIP2_5, Q9C0E4 = biological target: GRIP2_5, Q9C0E4
GRIP2_5, Q9C0E4, sequence (Q9C0E4 544-642): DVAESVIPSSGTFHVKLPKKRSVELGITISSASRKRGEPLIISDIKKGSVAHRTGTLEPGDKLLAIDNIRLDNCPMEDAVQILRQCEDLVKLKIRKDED

NOS1, P29475 = biological target: NOS1, P29475
NOS1, P29475, sequence (P29475 9-101): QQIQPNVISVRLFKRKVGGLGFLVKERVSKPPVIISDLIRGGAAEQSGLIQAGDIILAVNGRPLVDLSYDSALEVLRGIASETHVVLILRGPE

APBA1_1, Q02410 = biological target: T6, APBA1_1, Q02410
T6 sequence (Q02410 651-752, limits assumed, looked up): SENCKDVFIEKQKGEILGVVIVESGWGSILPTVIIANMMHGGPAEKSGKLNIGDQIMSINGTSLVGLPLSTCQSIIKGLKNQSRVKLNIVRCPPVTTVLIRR

APBA2_1, Q99767 = biological target: T7, APBA2_1, Q99767
T7 sequence (Q99767 563-664, limits assumed, looked up): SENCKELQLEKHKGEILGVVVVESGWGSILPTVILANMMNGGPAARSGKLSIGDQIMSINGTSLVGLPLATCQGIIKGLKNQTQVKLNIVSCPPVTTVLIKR

PICK1, Q9NRD5 = biological target: PICK1, Q9NRD5
PICK1, Q9NRD5, sequence (Q9NRD5 17-115): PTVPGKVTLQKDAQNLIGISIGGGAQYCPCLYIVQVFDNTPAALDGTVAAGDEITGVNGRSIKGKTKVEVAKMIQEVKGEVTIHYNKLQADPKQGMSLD

NHERF3_3, Q5T2W1 = biological target: T8, NHERF3_3, Q5T2W1
T8 sequence (Q5T2W1 238-333, limits assumed, looked up): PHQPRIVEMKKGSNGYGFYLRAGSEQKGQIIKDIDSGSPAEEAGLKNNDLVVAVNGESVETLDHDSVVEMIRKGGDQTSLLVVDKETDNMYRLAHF

APBA1_2, Q02410 = biological target: T9, APBA1_2, Q02410
T9 sequence (Q02410 742-832, limits assumed, looked up): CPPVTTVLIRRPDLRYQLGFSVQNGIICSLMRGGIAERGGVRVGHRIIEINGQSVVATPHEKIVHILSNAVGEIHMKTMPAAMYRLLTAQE

MPP2, Q14168 = biological target: T10, MPP2, Q14168
T10 sequence (Q14168 180-250, limits assumed, looked up): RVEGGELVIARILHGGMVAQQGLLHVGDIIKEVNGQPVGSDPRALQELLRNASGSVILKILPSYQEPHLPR

GRIP1_3, Q9Y3R0 = biological target: T11, GRIP1_3, Q9Y3R0
T11 sequence (Q9Y3R0 247-346, limits assumed, looked up): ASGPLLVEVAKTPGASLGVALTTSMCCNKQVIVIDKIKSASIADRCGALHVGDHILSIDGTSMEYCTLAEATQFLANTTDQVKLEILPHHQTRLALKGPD

MAGI1_1, Q96QZ7 = biological target: MAGI1_1, Q96QZ7
MAGI1_1, Q96QZ7, sequence (Q96QZ7 1-106): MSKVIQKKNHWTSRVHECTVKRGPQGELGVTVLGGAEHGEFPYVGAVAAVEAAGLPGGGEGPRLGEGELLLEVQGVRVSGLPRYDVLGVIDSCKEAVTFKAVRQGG

GRID2IP_2, A4D2P6 = biological target: GRID2IP_2, A4D2P6
GRID2IP_2, A4D2P6, sequence (A4D2P6 272-370): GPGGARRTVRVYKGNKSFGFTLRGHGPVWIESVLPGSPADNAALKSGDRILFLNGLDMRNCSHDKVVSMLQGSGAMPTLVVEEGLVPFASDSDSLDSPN

DLG3_2, Q92796 = biological target: T12, DLG3_2, Q92796
T12 sequence (Q92796 221-321, limits assumed, looked up): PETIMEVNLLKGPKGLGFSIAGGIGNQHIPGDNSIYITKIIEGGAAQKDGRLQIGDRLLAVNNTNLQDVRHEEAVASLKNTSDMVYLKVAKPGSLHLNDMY

[1] = modified: phospho on T at position -2 from the C-terminal residue
[2] = plain residues with an end cap or a label only (N-terminal biotin on a linker: ado-ado)

SRSRRRETAL [HPV33-E6_-2P, P06427]
pKd (NHERF3_1, Q5T2W1; [1]): below the threshold | pKd (RHPN1, Q8TCX5; [1]): below the threshold | pKd (DLG4_2, P78352; [1]): below the threshold | pKd (SYNJ2BP, P57105; [1]): below the threshold | pKd (GRIP2_4, Q9C0E4; [1]): below the threshold | pKd (GRIP1_5, Q9Y3R0; [1]): below the threshold | pKd (LNX2_2, Q8N448; [1]): below the threshold | pKd (DLG4_1, P78352; [1]): below the threshold | pKd (FRMPD3, Q5JV73; [1]): below the threshold | pKd (PDLIM1, O00151; [1]): below the threshold | pKd (DLG2_3, Q15700; [1]): below the threshold | pKd (Inadl_8, Q8NI35; [1]): below the threshold | pKd (HTRA1, Q92743; [1]): below the threshold | pKd (IL16_3, Q14005; [1]): below the threshold | pKd (GRIP2_5, Q9C0E4; [1]): below the threshold | pKd (NOS1, P29475; [1]): 3.75 | pKd (APBA1_1, Q02410; [1]): below the threshold | pKd (APBA2_1, Q99767; [1]): below the threshold | pKd (PICK1, Q9NRD5; [1]): below the threshold | pKd (NHERF3_3, Q5T2W1; [1]): below the threshold | pKd (APBA1_2, Q02410; [1]): below the threshold | pKd (MPP2, Q14168; [1]): below the threshold | pKd (GRIP1_3, Q9Y3R0; [1]): below the threshold | pKd (MAGI1_1, Q96QZ7; [1]): below the threshold | pKd (GRID2IP_2, A4D2P6; [1]): below the threshold | pKd (DLG3_2, Q92796; [1]): below the threshold

QLKSGRDSTV [TMEM178A, Q8NBL3]
pKd (NHERF3_1, Q5T2W1; [2]): below the threshold | pKd (RHPN1, Q8TCX5; [2]): 4.06 | pKd (DLG4_2, P78352; [2]): 4.61 | pKd (SYNJ2BP, P57105; [2]): 4.48 | pKd (GRIP2_4, Q9C0E4; [2]): below the threshold | pKd (GRIP1_5, Q9Y3R0; [2]): below the threshold | pKd (LNX2_2, Q8N448; [2]): 3.49 | pKd (DLG4_1, P78352; [2]): 4.34 | pKd (FRMPD3, Q5JV73; [2]): below the threshold | pKd (PDLIM1, O00151; [2]): below the threshold | pKd (DLG2_3, Q15700; [2]): below the threshold | pKd (Inadl_8, Q8NI35; [2]): 3.7 | pKd (HTRA1, Q92743; [2]): 4.4 | pKd (IL16_3, Q14005; [2]): below the threshold | pKd (GRIP2_5, Q9C0E4; [2]): below the threshold | pKd (NOS1, P29475; [2]): 3.52 | pKd (APBA1_1, Q02410; [2]): below the threshold | pKd (APBA2_1, Q99767; [2]): 3.52 | pKd (PICK1, Q9NRD5; [2]): 4.35 | pKd (NHERF3_3, Q5T2W1; [2]): below the threshold | pKd (APBA1_2, Q02410; [2]): 3.63 | pKd (MPP2, Q14168; [2]): below the threshold | pKd (GRIP1_3, Q9Y3R0; [2]): below the threshold | pKd (MAGI1_1, Q96QZ7; [2]): below the threshold | pKd (GRID2IP_2, A4D2P6; [2]): 3.54 | pKd (DLG3_2, Q92796; [2]): 4.35

DLLGGGSDSI [TNRC6B, Q9UPQ9]
pKd (NHERF3_1, Q5T2W1; [2]): below the threshold | pKd (RHPN1, Q8TCX5; [2]): 3.79 | pKd (DLG4_2, P78352; [2]): 3.5 | pKd (SYNJ2BP, P57105; [2]): below the threshold | pKd (GRIP2_4, Q9C0E4; [2]): below the threshold | pKd (GRIP1_5, Q9Y3R0; [2]): below the threshold | pKd (LNX2_2, Q8N448; [2]): below the threshold | pKd (DLG4_1, P78352; [2]): below the threshold | pKd (FRMPD3, Q5JV73; [2]): below the threshold | pKd (PDLIM1, O00151; [2]): below the threshold | pKd (DLG2_3, Q15700; [2]): 3.62 | pKd (Inadl_8, Q8NI35; [2]): below the threshold | pKd (HTRA1, Q92743; [2]): below the threshold | pKd (IL16_3, Q14005; [2]): below the threshold | pKd (GRIP2_5, Q9C0E4; [2]): below the threshold | pKd (NOS1, P29475; [2]): 3.9 | pKd (APBA1_1, Q02410; [2]): below the threshold | pKd (APBA2_1, Q99767; [2]): below the threshold | pKd (PICK1, Q9NRD5; [2]): below the threshold | pKd (NHERF3_3, Q5T2W1; [2]): below the threshold | pKd (APBA1_2, Q02410; [2]): below the threshold | pKd (MPP2, Q14168; [2]): below the threshold | pKd (GRIP1_3, Q9Y3R0; [2]): below the threshold | pKd (MAGI1_1, Q96QZ7; [2]): below the threshold | pKd (GRID2IP_2, A4D2P6; [2]): below the threshold | pKd (DLG3_2, Q92796; [2]): 3.99

TKEIPNCTSV [SORCS3, Q9UPU3]
pKd (NHERF3_1, Q5T2W1; [2]): 4.36 | pKd (RHPN1, Q8TCX5; [2]): 3.81 | pKd (DLG4_2, P78352; [2]): 4.28 | pKd (SYNJ2BP, P57105; [2]): 4.72 | pKd (GRIP2_4, Q9C0E4; [2]): below the threshold | pKd (GRIP1_5, Q9Y3R0; [2]): below the threshold | pKd (LNX2_2, Q8N448; [2]): 4.52 | pKd (DLG4_1, P78352; [2]): 4.26 | pKd (FRMPD3, Q5JV73; [2]): below the threshold | pKd (PDLIM1, O00151; [2]): below the threshold | pKd (DLG2_3, Q15700; [2]): 4.24 | pKd (Inadl_8, Q8NI35; [2]): 4.28 | pKd (HTRA1, Q92743; [2]): 3.82 | pKd (IL16_3, Q14005; [2]): below the threshold | pKd (GRIP2_5, Q9C0E4; [2]): below the threshold | pKd (NOS1, P29475; [2]): 3.57 | pKd (APBA1_1, Q02410; [2]): below the threshold | pKd (APBA2_1, Q99767; [2]): below the threshold | pKd (PICK1, Q9NRD5; [2]): 4.17 | pKd (NHERF3_3, Q5T2W1; [2]): below the threshold | pKd (APBA1_2, Q02410; [2]): 4.64 | pKd (MPP2, Q14168; [2]): below the threshold | pKd (GRIP1_3, Q9Y3R0; [2]): below the threshold | pKd (MAGI1_1, Q96QZ7; [2]): below the threshold | pKd (GRID2IP_2, A4D2P6; [2]): 4.29 | pKd (DLG3_2, Q92796; [2]): 4.22

Source: article PMC9482650, “Quantitative fragmentomics allow affinity mapping of interactomes” (Nature Communications, 2022)
